Source: paper PMC6910952 (Nature Communications, 2019)
Numbering of substitutions follows the chain as printed.

How the values were obtained:
Assay in all cases: pull-down; GST-yNpl4 (0.5 μM, wild type or mutant) on Glutathione Sepharose 4B beads, 1 h at room temperature with 0.5 μM yUfd1, 3 μM Cdc48 (0.5 μM hexamer) and 1 μg K48 chains in 100 μL 50 mM Tris-HCl pH 7.5, 100 mM NaCl, 10% glycerol, 0.1% Triton X-100; chains detected by anti-Ub immunoblot, proteins by Ponceau S
Details in all cases: both partners purified
GST-yNpl4 M574Q = molecular target: T1, GST-yNpl4 M574Q (Saccharomyces cerevisiae, UniProt P33755 1-580, M574Q)
T1 construct: Npl4 of Saccharomyces cerevisiae (yNpl4), full length; source: E. coli Rosetta (DE3) (pGEX-6P1), purified (Glutathione Sepharose FF, Resource Q); not shown: GST, N-terminal, kept
T1 sequence (looked up): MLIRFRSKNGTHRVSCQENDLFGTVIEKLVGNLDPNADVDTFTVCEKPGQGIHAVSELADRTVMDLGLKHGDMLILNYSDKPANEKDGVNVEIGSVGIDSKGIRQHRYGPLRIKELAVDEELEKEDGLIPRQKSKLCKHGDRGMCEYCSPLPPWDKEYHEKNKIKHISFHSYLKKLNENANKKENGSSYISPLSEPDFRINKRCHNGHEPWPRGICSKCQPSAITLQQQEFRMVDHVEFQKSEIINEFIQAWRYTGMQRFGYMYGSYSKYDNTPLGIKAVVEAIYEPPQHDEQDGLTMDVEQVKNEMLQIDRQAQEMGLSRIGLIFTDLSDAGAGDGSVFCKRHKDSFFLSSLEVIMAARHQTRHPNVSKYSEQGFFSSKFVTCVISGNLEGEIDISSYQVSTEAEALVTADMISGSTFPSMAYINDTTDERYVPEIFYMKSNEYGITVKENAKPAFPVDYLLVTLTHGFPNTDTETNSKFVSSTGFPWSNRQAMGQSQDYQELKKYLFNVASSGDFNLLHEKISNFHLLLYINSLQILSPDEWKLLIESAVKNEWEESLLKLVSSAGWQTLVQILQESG

GST-yNpl4 M574A = molecular target: T2, GST-yNpl4 M574A (Saccharomyces cerevisiae, UniProt P33755 1-580, M574A)
T2 construct: Npl4 of Saccharomyces cerevisiae (yNpl4), full length; source: E. coli Rosetta (DE3) (pGEX-6P1), purified (Glutathione Sepharose FF, Resource Q); not shown: GST, N-terminal, kept
T2 sequence (looked up): T1 sequence (looked up) with Q574A

GST-yNpl4 I575A = molecular target: T3, GST-yNpl4 I575A (Saccharomyces cerevisiae, UniProt P33755 1-580, I575A)
T3 construct: Npl4 of Saccharomyces cerevisiae (yNpl4), full length; source: E. coli Rosetta (DE3) (pGEX-6P1), purified (Glutathione Sepharose FF, Resource Q); not shown: GST, N-terminal, kept
T3 sequence (looked up): T1 sequence (looked up) with Q574M, I575A

binding result (GST-yNpl4 M574Q): binds | binding result (GST-yNpl4 M574A): binds | binding result (GST-yNpl4 I575A): binds
B1: yUfd1 (full length, untagged) (natural protein, Saccharomyces cerevisiae, UniProt P53044 1-361, looked up)
chain: MFSGFSSFGGGNGFVNMPQTFEEFFRCYPIAMMNDRIRKDDANFGGKIFLPPSALSKLSMLNIRYPMLFKLTANETGRVTHGGVLEFIAEEGRVYLPQWMMETLGIQPGSLLQISSTDVPLGQFVKLEPQSVDFLDISDPKAVLENVLRNFSTLTVDDVIEISYNGKTFKIKILEVKPESSSKSICVIETDLVTDFAPPVGYVEPDYKALKAQQDKEKKNSFGKGQVLDPSVLGQGSMSTRIDYAGIANSSRNKLSKFVGQGQNISGKAPKAEPKQDIKDMKITFDGEPAKLDLPEGQLFFGFPMVLPKEDEESAAGSKSSEQNFQGQGISLRKSNKRKTKSDHDSSKSKAPKSPEVIEID
notes: Ufd1 of Saccharomyces cerevisiae (yUfd1), full length; codon-optimized synthetic cDNA; removal of GST by HRV3C is surmised; also called untagged Ufd1; source: E. coli Rosetta (DE3) (pGEX-6P1), purified
